Source: publication PMC5692578 (Proceedings of the National Academy of Sciences of the …, 2017)

T1: Mcm4 (S. cerevisiae, UniProt P30665 1-933)
T1 sequence: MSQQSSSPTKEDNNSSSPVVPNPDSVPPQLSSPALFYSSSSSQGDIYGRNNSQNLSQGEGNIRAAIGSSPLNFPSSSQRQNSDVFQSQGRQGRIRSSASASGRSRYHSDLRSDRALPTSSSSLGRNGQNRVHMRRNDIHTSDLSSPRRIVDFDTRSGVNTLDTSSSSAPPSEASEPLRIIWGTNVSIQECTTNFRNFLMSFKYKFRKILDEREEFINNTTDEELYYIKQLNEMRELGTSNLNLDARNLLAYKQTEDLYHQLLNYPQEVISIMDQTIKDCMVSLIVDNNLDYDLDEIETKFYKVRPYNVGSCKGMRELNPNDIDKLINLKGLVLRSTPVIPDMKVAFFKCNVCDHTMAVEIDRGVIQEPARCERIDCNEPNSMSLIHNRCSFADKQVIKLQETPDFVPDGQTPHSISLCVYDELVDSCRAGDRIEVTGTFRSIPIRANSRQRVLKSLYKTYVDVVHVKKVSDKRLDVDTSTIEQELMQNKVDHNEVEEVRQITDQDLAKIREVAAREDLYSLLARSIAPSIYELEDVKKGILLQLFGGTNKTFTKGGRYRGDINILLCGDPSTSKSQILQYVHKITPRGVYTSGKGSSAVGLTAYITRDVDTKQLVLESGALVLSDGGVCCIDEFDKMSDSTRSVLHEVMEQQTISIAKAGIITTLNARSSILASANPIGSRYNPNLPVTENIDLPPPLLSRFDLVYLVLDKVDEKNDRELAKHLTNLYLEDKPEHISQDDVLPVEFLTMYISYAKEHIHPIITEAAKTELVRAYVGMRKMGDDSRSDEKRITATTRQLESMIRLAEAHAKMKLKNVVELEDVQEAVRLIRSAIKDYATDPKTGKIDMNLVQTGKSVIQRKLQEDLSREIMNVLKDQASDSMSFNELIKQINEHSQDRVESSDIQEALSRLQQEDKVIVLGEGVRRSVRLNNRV

B1: Mcm5 (natural protein)
chain: MSFDRPEIYSAPVLQGESPNDDDNTEIIKSFKNFILEFRLDSQFIYRDQLRNNILVKNYSLTVNMEHLIGYNEDIYKKLSDEPSDIIPLFETAITQVAKRISILSRAQSANNNDKDPENTSMDTDSLLLNSLPTFQLILNSNANQIPLRDLDSEHVSKIVRLSGIIISTSVLSSRATYLSIMCRNCRHTTSITINNFNSITGNTVSLPRSCLSTIESESSMANESNIGDESTKKNCGPDPYIIIHESSKFIDQQFLKLQEIPELVPVGEMPRNLTMTCDRYLTNKVIPGTRVTIVGIYSIYNSKNGAGSGRSGGGNGGSGVAIRTPYIKILGIQSDVETSSIWNSVTMFTEEEEEEFLQLSRNPKLYEILTNSIAPSIFGNEDIKKAIVCLLMGGSKKILPDGMRLRGDINVLLLGDPGTAKSQLLKFVEKVSPIAVYTSGKGSSAAGLTASVQRDPMTREFYLEGGAMVLADGGVVCIDEFDKMRDEDRVAIHEAMEQQTISIAKAGITTVLNSRTSVLAAANPIYGRYDDLKSPGDNIDFQTTILSRFDMIFIVKDDHNEERDISIANHVINIHTGNANAMQNQQEENGSEISIEKMKRYITYCRLKCAPRLSPQAAEKLSSNFVTIRKQLLINELESTERSSIPITIRQLEAIIRITESLAKLELSPIAQERHVDEAIRLFQASTMDAASQDPIGGLNQASGTSLSEIRRFEQELKRRLPIGWSTSYQTLRREFVDTHRFSQLALDKALYALEKHETIQLRHQGQNIYRSGV
B2: Mcm7 (natural protein)
chain: MSAALPSIQLPVDYNNLFNEITDFLVTFKQDTLSSDATRNENEDENLDAENIEQHLLEKGPKYMAMLQKVANRELNSVIIDLDDILQYQNEKFLQGTQADDLVSAIQQNANHFTELFCRAIDNNMPLPTKEIDYKDDVLDVILNQRRLRNERMLSDRTNEIRSENLMDTTMDPPSSMNDALREVVEDETELFPPNLTRRYFLYFKPLSQNCARRYRKKAISSKPLSVRQIKGDFLGQLITVRGIITRVSDVKPAVEVIAYTCDQCGYEVFQEVNSRTFTPLSECTSEECSQNQTKGQLFMSTRASKFSAFQECKIQELSQQVPVGHIPRSLNIHVNGTLVRSLSPGDIVDVTGIFLPAPYTGFKALKAGLLTETYLEAQFVRQHKKKFASFSLTSDVEERVMELITSGDVYNRLAKSIAPEIYGNLDVKKALLLLLVGGVDKRVGDGMKIRGDINVCLMGDPGVAKSQLLKAICKISPRGVYTTGKGSSGVGLTAAVMKDPVTDEMILEGGALVLADNGICCIDEFDKMDESDRTAIHEVMEQQTISISKAGINTTLNARTSILAAANPLYGRYNPRLSPLDNINLPAALLSRFDILFLMLDIPSRDDDEKLAEHVTYVHMHNKQPDLDFTPVEPSKMREYIAYAKTKRPVMSEAVNDYVVQAYIRLRQDSKREMDSKFSFGQATPRTLLGIIRLSQALAKLRLADMVDIDDVEEALRLVRVSKESLYQETNKSKEDESPTTKIFTIIKKMLQETGKNTLSYENIVKTVRLRGFTMLQLSNCIQEYSYLNVWHLINEGNTLKFVDDGTMDTDQEDSLVSTPKLAPQTTASANVSAQDSDIDLQDA

Experiments:
Assay in all cases: cryo-EM structure
Mcm7 = target: B2
Mcm3 = Mcm3 (S. cerevisiae, UniProt P24279 1-971)
Mcm4 = target: T1, Mcm4

Chain of Mcm3 (P24279 whole entry): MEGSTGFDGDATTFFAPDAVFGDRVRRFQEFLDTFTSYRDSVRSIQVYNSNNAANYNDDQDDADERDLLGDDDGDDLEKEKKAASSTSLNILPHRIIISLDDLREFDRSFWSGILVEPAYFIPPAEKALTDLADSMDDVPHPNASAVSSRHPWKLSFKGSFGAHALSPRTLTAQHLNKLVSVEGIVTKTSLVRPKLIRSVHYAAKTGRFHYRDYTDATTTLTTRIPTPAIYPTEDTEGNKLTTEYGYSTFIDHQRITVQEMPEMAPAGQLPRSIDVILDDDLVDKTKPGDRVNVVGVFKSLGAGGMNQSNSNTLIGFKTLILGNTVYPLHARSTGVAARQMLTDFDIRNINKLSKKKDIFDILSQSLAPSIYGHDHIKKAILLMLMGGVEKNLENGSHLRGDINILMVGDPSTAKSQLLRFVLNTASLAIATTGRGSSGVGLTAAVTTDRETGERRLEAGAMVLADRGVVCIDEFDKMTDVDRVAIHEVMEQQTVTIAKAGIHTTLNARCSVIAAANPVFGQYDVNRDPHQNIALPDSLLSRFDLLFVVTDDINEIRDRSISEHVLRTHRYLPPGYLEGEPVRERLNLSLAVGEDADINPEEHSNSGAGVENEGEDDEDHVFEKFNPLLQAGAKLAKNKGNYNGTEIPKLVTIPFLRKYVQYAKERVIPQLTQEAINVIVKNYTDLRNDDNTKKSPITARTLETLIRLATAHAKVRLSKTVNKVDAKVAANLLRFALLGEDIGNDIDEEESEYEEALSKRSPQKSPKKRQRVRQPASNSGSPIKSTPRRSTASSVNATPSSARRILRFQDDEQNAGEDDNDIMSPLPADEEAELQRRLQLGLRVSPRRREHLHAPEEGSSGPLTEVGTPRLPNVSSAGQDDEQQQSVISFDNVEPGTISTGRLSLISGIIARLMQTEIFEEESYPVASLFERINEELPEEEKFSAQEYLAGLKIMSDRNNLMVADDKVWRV

binding result (Mcm7)	binding result (Mcm3)	binding result (Mcm4)	Binder
binds			B1
	binds	binds	B2
